These results are taken from US5591613A, “Method for the preparation of D-arginine and L-ornithine” (Degussa Aktiengesellschaft, priority 1990, dated 1997).

Substrate in the series: N=C(N)NCCC[C@H](N)C(=O)O
In words: Arginase-catalysed hydrolysis of L-Arg to L-Orn, initial rates in batch, with and without inhibitors. It is filed as biochemical, calf. The following applies: other: nonlinear regression of initial rate data with L-Arg; 25.0 °C.

Procedure: In further experiments, the materials used were: Calf liver arginase (activity 110 U/mg) which was obtained from Boehringer Mannheim (Mannheim, F.R.G.). Amino acids were from Rexim (Ham, France). MnSO4, MnO2, and ascorbic acid were from E. Merck (Darmstadt, F.R.G.).
Batch conditions used were: Starting pH value, except for the activity-pH curve, was either 11.5, the natural value for L-Arg in water, or 9.5, adjusted from pH 11.5 with conc. HCl. The temperature was 25° C. unless otherwise noted. Typical concentrations of L-Arg were 0.75M. Unless otherwise mentioned, [Mn2^+ ]=5-10^-4 M. Reaction progress was followed by HPLC (amino column, mobile phase: phosphate buffer (pH 6.4)/acetonitrile).
Kinetic data was obtained as follows: Initial rate data were analyzed by a non-linear regression method (Marquardt routine) with the program OPTI (U. Giesecke, KFA J ulich).
A linear slope of 1/[S] vs. [I] plot distinguishes a purely competitive inhibition mechanism from a partially competitive one. Simultaneously, the apparent and the intrinsic KM -value are proportional to [I] according to equation (5) from which the inhibition constant KI can be calculated
Since the runs have been conducted at [LArg]=50 mM=2·Km,intr,Vo =Vmax ·2·KM,intr /(KM,intr (3+[I]/KI))=Vmax ·2/(3+[I]/KI). At [I]=KI, Vo =Vmax 2/(3+1)=Vmax /2. So, KI can be calcuated with sufficient accuracy from a Vo vs. [I] plot such as FIG. 4.

B1: Calf liver arginase (Bos taurus) (protein)
chain: MSSKPQSIGVIGAPFSKGQPRGGVEEGPTVLRKAGLLEKLKELECDVKDYGDLSFADNLDDSPFQIVKNPRCVGKASEKLADVVAEVKKTGRISLVLGGDHSLAIGSISGHARVHPDLCVIWVDAHTDINTPLTTKTGNLHGQPVSFLLKELKEKMPEVPGFYWVAPCISAKDIVYIGLRDVDPGEHYILKTLGIKYFSMTEVDKLGIGKVMEETFSYLLGRKKRPIHLSFDVDGLDPSFTPATGTPVQGGLTYREGLYITEEIYKTGLLSGLDIMEVNPSLGKTPEEVTRTVNTTVAITMACFGVAREGNHKPIDYLSPPK
notes: purchased Boehringer Mannheim (Mannheim, F.R.G.)
B1: the Km was 25.5 mM and the kcat stood at 1200 s⁻¹.
